Results published in patent US20090280543A1, “REGIOSELECTIVE GLYCOSYLATION” (THE UNIVERSITY OF YORK, priority 2005, published 2009).

B1: GT 71C4: Arabidopsis thaliana glycosyltransferase, SEQ ID NO: 10 (nucleotide), 110 (amino acid) (protein, listed as Arabidopsis thaliana)
chain: MVKETELIFIPVPSTGHILVHIEFAKRLINLDHRIHTITILNLSSPSSPHASVFARSLIASQPKIRLHDLPPIQDPPPFDLYQRAPEAYIVKLIKKNTPLIKDAVSSIVASRRGGSDSVQVAGLVLDLFCNSLVKDVGNELNLPSYIYLTCNARYLGMMKYIPDRHRKIASEFDLSSGDEELPVPGFINAIPTKFMPPGLFNKEAYEAYVELAPRFADAKGILVNSFTELEPHPFDYFSHLEKFPPVYPVGPILSLKDRASPNEEAVDRDQIVGWLDDQPESSVVFLCFGSRGSVDEPQVKEIARALELVGCRFLWSIRTSGDVETNPNDVLPEGFMGRVAGRGLVCGWAPQVEVLAHKAIGGFVSHCGWNSTLESLWFGVPVATWPMYAEQQLNAFTLVKELGLAVDLRMDYVSSRGGLVTCDEIARAVRSLMDGGDEKRKKVKEMADAARKALMDGGSSSLATARFIAELFEDGSSC
B2: GT 88A1: Arabidopsis thaliana glycosyltransferase, SEQ ID NO: 97 (nucleotide), 133 (amino acid) (protein, listed as Arabidopsis thaliana)
chain: MGEEAIVLYPAPPIGHLVSMVELGKTILSKNPSLSIHIILVPPPYQPESTATYISSVSSSFPSITFHHLPAVTPYSSSSTSRHHHESLLLEILCFSNPSVHRTLFSLSRNFNVRAMIIDFFCTAVLDITADFTFPVYFFYTSGAACLAFSFYLPTIDETTPGKNLKDIPTVHIPGVPPMKGSDMPKAVLERDDEVYDVFIMFGKQLSKSSGIIINTFDALENRAIKAITEELCFRNIYPIGPLIVNGRIEDRNDNKAVSCLNWLDSQPEKSVVFLCFGSLGLFSKEQVIEIAVGLEKSGQRFLWVVRNPPELEKTELDLKSLLPEGFLSRTEDKGMVVKSWAPQVPVLNHKAVGGFVTHCGWNSILEAVCAGVPMVAWPLYAEQRFNRVMIVDEIKIAISMNESETGFVSSTEVEKRVQEIIGECPVRERTMAMKNAAELALTETGSSHTALTTLLQSWSPK
B3: GT 71 D1: Arabidopsis thaliana glycosyltransferase, SEQ ID NO: 12 (nucleotide), 111 (amino acid) (protein, listed as Arabidopsis thaliana)
chain: MRNVELIFIPTPTVGHLVPFLEFARRLIEQDDRIRITILLMKLQGQSHLDTYVKSIASSQPFVRFIDVPELEEKPTLGSTQSVEAYVYDVIERNIPLVRNIVMDILTSLALDGVKVKGLVVDFFCLPMIDVAKDISLPFYVFLTTNSGFLAMMQYLADRHSRDTSVFVRNSEEMLSIPGFVNPVPANVLPSALFVEDGYDAYVKLAILFTKANGILVNSSFDIEPYSVNHFLQEQNYPSVYAVGPIFDLKAQPHPEQDLTRRDELMKWLDDQPEASVVFLCFGSMARLRGSLVKEIAHGLELCQYRFLWSLRKEEVTKDDLPEGFLDRVDGRGMICGWSPQVEILAHKAVGGFVSHCGWNSIVESLWFGVPIVTWPMYAEQQLNAFLMVKELKLAVELKLDYRVHSDEIVNANEIETAIRYVMDTDNNVVRKRVMDISQMIQRATKNGGSSFAAIEKFIYDVIGIKP
B4: GT 74B1: Arabidopsis thaliana glycosyltransferase, SEQ ID NO: 35 (nucleotide), 124 (amino acid) (protein, listed as Arabidopsis thaliana)
chain: MAETTPKVKGHVVILPYPVQGHLNPMVQFAKRLVSKNVKVTIATTTYTASSITTPSLSVEPISDGFDFIPIGIPGFSVDTYSESFKLNGSETLTLLIEKFKSTDSPIDCLIYDSFLPWGLEVARSMELSAASFFTNNLTVCSVLRKFSNGDFPLPADPNSAPFRIRGLPSLSYDELPSFVGRHWLTHPEHGRVLLNQFPNHENADWLFVNGFEGLEETQDCENGESDAMKATLIGPMIPSAYLDDRMEDDKDYGASLLKPISKECMEWLETKQAQSVAFVSFGSFGILFEKQLAEVAIALQESDLNFLWVIKEAHIAKLPEGFVESTKDRALLVSWCNQLEVLAHESIGCFLTHCGWNSTLEGLSLGVPMVGVPQWSDQMNDAKFVEEVWKVGYRAKEEAGEVIVKSEELVRCLKGVMEGESSVKIRESSKKWKDLAVKAMSEGGSSDRSINEFIESLGK
B5: GT 71C2: Arabidopsis thaliana glycosyltransferase, SEQ ID NO: 8 (nucleotide), 109 (amino acid) (protein, listed as Arabidopsis thaliana)
chain: MAKQQEAELIFIPFPIPGHILATIELAKRLISHQPSRIHTITILHWSLPFLPQSDTIAFLKSLIETESRIRLITLPDVQNPPPMELFVKASESYILEYVKKMVPLVRNALSTLLSSRDESDSVHVAGLVLDFFCVPLIDVGNEFNLPSYIFLTCSASFLGMMKYLLERNRETKPELNRSSDEETISVPGFVNSVPVKVLPPGLFTTESYEAWVEMAERFPEAKGILVNSFESLERNAFDYFDRRPDNYPPVYPIGPILCSNDRPNLDLSERDRILKWLDDQPESSVVFLCFGSLKSLAASQIKEIAQALELVGIRFLWSIRTDPKEYASPNEILPDGFMNRVMGLGLVCGWAPQVEILAHKAIGGFVSHCGWNSILESLRFGVPIATWPMYAEQQLNAFTIVKELGLALEMRLDYVSEYGEIVKADEIAGAVRSLMDGEDVPRRKLKEIAEAGKEAVMDGGSSFVAVKRFIDGL
B6: GT 72D1: Arabidopsis thaliana glycosyltransferase, SEQ ID NO: 18 (nucleotide), 113 (amino acid) (protein, listed as Arabidopsis thaliana)
chain: MDQPHALLVASPGLGHLIPILELGNRLSSVLNIHVTILAVTSGSSSPTETEAIHAAAARTICQITEIPSVDVDNLVEPDATIFTKMVVKMRAMKPAVRDAVKLMKRKPTVMIVDFLGTELMSVADDVGMTAKYVYVPTHAWFLAVMVYLPVLDTVVEGEYVDIKEPLKIPGCKPVGPKELMETMLDRSGQQYKECVRAGLEVPMSDGVLVNTWEELQGNTLAALREDEELSRVMKVPVYPIGPIVRTNQHVDKPNSIFEWLDEQRERSVVFVCLGSGGTLTFEQTVELALGLELSGQRFVWVLRRPASYLGAISSDDEQVSASLPEGFLDRTRGVGIVVTQWAPQVEILSHRSIGGFLSHCGWSSALESLTKGVPIIAWPLYAEQWMNATLLTEEIGVAVRTSELPSERVIGREEVASLVRKIMAEEDEEGQKIRAKAEEVRVSSERAWSKDGSSYNSLFEWAKRCYLVP

experiment: Whole-cell biocatalysis screen of GT library against the aglycone trans-resveratrol (RP-HPLC of glucosides); format: cell-based, E. coli; details: 500 µM aglycone, 44 h, 25° C.
Description: FIG. 4: Screening of a GT-library against the aglycone trans-resveratrol. a) The readings at A405 nm for D-glucose detection are presented in a colored code format. b) Examples of RP HPLC trace of active and non active GTs in whole cell biocatalysis are illustrated. c) The regioselectivity of the active GTs towards trans-resveratrol, defined by the percentage of a regiospecific glucoside in the total amount of monoglucosides formed;
(§1) Reverse-phase HPLC (RP-HPLC): RP-HPLC (Agilent 1100 system with Photodiode Array Detector, Agilent, U.K.) analysis was carried out using a Columbus 5-μ C18 column (150×3.20 mm, Phenomenex, U.K.). Glucosides were separated from their respective aglycones using a linear gradient of acetonitrile/0.1% formic acid (v/v) in H2O: 10-45% (trans-resveratrol/glucosides), 10-50% (daidzein/glucosides) at 0.5 mL/min over 20 min and monitored at 280 nm and 250 nm. Separation of scopoletin/scopolin and esculetin/esculin was carried out using the conditions described previously.^[11]
The cDNA library of 96 Arabidopsis thaliana GTs was subcloned into the multiple cloning site of the glutathione-S-transferase (GST) gene fusion vector pGEX-2T (Amersham Biosciences, U.K.) as described previously^[10] and transformed into the strain E. coli BL21 (DE3) for use in the screening method.
Stage 1, biotransformation: single colonies of the GT library grown on LB-agar plates overnight were transferred to individual wells in a 96-well bacterial culture plate containing 400 μl 2×YT medium (16 g/L bacto tryptone, 10 g/L yeast extract, 5 g/L NaCl) and 50 μg/mL ampicillin. The plate was covered with an adhesive plate seal (Abgene, U.K.) and incubated at 37° C. (250 rpm). The bacterial growth was monitored at 595 nm by a plate reader. After 4 h, the cultures had reached exponential phase. The plate was centrifuged (4000 g, 10 min), the supernatants discarded and cell pellets were resuspended in isopropyl-D-thiogalactopyranoside (0.1 mM), 2-(N-morpholino)ethanesulfonic acid (50 mM, pH 7.0), ampicillin (50 μg/mL), L-arabinose (10 g/L) and 500 µM of aglycone to a total whole-cell reaction volume of 400 μl/well. The 96-well plate was closed with a gas permeable adhesive plate seal, wrapped in alu foil for light protection and incubated at 25° C. (250 rpm). After 44 h the cultures were centrifuged (4000 g, 15 min) and the supernatants analyzed.
Stage 2, cleavage: supernatants (100 μl) were transferred to a microtiter plate, 1 μl of β-glucosidase (1 U) was added and the plate incubated for 90 min at 37° C.
(§2) Stage 3, detection: 50 μl of the reaction mix were transferred to a 96-well filtration plate (Abgene, U.K.), mixed with an equal volume of PVPP aqueous suspension (25 g/L), shaken for 1 h at 25° C. before centrifugation (1000 g, 5 min). To each filtrate, 50 mM 2-morpholino-ethanesulfonic acid buffer (MES) (pH 7.0), ABTS™ (0.1 mM), peroxidase (2 U) and glucose oxidase (2 U) were added to a final volume of 125 μl. The formation of the green dye was monitored at 405 nm at 30 min using a plate reader (Bio-Tec Instruments Inc., U.S.A).
The utility of the screening method and regioselective biocatalysis by the GTs are illustrated in FIGS. 2 and 3. Thirteen GTs recognized daidzein and twenty-five GTs were identified that glycosylated trans-resveratrol. […] The mono- and di-glucosides of daidzein (4-6) and trans-resveratrol (8-10), eluting earlier than the two aglycones under the RP-HPLC conditions used (FIGS. 2b and 3b), were identified using external standards when available, or by electrospray liquid chromatography-mass spectrometry (LC-MS). ^1H-NMR analysis was used to confirm the structure of the monoglucosides (Table 1, SEQ ID NO: 1-107). […] Similarly, regioselective glycosylation of trans-resveratrol was observed. […] Only trace levels of a diglucoside were observed under the reaction conditions used.

Molecule | regioselective glycosylation of trans-resveratrol (position)
B1 | specific for the 3-OH position
B2 | specific for the 3-OH position
B3 | specific for the 3-OH position
B4 | specific for the 4′-OH position
B5 | specific for the 3-OH position
B6 | specific for the 3-OH position

experiment: Removal of aglycones through adsorption by PVPP, analysed by RP-HPLC; format: physicochemical; details: ratio of compounds removed by PVPP over that in the untreated samples
Description: FIG. 7: Removal of different aglycones through adsorbtion by PVPP. The removal of a) trans-resveratrol (100%), b) esculetin (70%), c) daidzein (81%), and d) scopoletin (92%) by PVPP was analyzed by RP-HPLC. The efficiency was defined as the ratio of compounds removed by PVPP over that in the untreated samples;
as §1, §2

Molecule | removal by PVPP (efficiency) [%]
O=c1c(-c2ccc(O)cc2)coc2cc(O)ccc12 [daidzein] | 81
O=c1ccc2cc(O)c(O)cc2o1 [esculetin] | 70
COc1cc2ccc(=O)oc2cc1O [scopoletin] | 92
Oc1ccc(/C=C/c2cc(O)cc(O)c2)cc1 [trans-resveratrol] | 100
